Data set [1] has as its system HeLa Kyoto. Put plainly: melting temperature (median over replicates), in situ; higher = more thermally stable.
Data set [2] relates to HeLa Kyoto. In words: thermal stability score vs G1/S (z-score of summed log2 fold changes over temperatures); higher = more thermally stable than in G1/S.
Data set [3] deals with HeLa Kyoto. Put plainly: solubility in G1/S (NP-40 vs SDS abundance) (log2 ratio); higher = more soluble. The following applies: cell cycle stage: G1/S.
Data set [4] relates to HeLa Kyoto. Put plainly: solubility change mitosis vs G1/S (difference of NP-40 vs SDS log2 ratios) (log2 ratio difference); higher = more soluble in mitosis.
Setting [5] is: cell cycle stage: early G1 (4.5 h after nocodazole release).

Data on six sequences can be found in the supplement of paper PMC5998384.
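Wherever melting temperature (median over replicates), in situ is given: HeLa Kyoto cells synchronized by double thymidine or nocodazole block, proteins quantified by TMT10plex mass spectrometry, three independent biological replicates.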
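Wherever solubility change mitosis vs G1/S (difference of NP-40 vs SDS log2 ratios) is given: synchronized HeLa Kyoto cells (double thymidine block for G1/S, nocodazole release for mitosis), protein amounts in NP-40 versus SDS lysates quantified by mass spectrometry, three biological replicates.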
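Wherever solubility in G1/S (NP-40 vs SDS abundance) is given: HeLa Kyoto cells arrested at G1/S by double thymidine block, proteins quantified by TMT10plex mass spectrometry in mild NP-40 versus SDS extracts, three biological replicates.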
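Wherever thermal stability score vs G1/S (z-score of summed log2 fold changes over temperatures) is given: synchronized HeLa Kyoto cells, proteins quantified by TMT10plex mass spectrometry, three biological replicates, mitosis taken 0.5 h after nocodazole release, G1/S directly after double thymidine block.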

For “METILEQQRRYHEEKERLMDVMAKEMLTKKSTLRDQINSDHRTRAMQDRYMEVSGNLRDLYDDKDGLRKEELNAISGPNEFAEFYNRLKQIKEFHRKHPNEICVPMSVEFEELLKARENPSEEAQNLVEFTDEEGYGRYLDLHDCYLKYINLKASEKLDYITYLSIFDQLFDIPKERKNAEYKRYLEMLLEYLQDYTDRVKPLQDQNELFGKIQAEFEKKWENGTFPGWPKETSSALTHAGAHLDLSAFSSWEELASLGLDRLKSALLALGLKCGGTLEERAQRLFSTKGKSLESLDTSLFAKNPKSKGTKRDTERNKDIAFLEAQIYEYVEILGEQRHLTHENVQRKQARTGEEREEEEEEQISESESEDEENEIIYNPKNLPLGWDGKPIPYWLYKLHGLNINYNCEICGNYTYRGPKAFQRHFAEWRHAHGMRCLGIPNTAHFANVTQIEDAVSLWAKLKLQKASERWQPDTEEEYEDSSGNVVNKKTYEDLKRQGLL [SF3A3]”, the melting temperature with HeLa Kyoto [1] (cell cycle stage: G1/S) was 49.8 °C; with HeLa Kyoto [1] (cell cycle stage: mitosis), 48.1 °C. The results for the thermal stability score in the data set with HeLa Kyoto [2] (setting [5]) and with HeLa Kyoto [2] (cell cycle stage: mitosis) were 0.0461 and 0.769, respectively. Further, in the data set on HeLa Kyoto [3], the “solubility in G1/S (log2)” value was 0.132. Besides, the “solubility change mitosis (log2)” value with HeLa Kyoto [4] worked out at 0.129.
“METQLSNGPTCNNTANGPTTINNNCSSPVDSGNTEDSKTNLIVNYLPQNMTQEELKSLFGSIGEIESCKLVRDKITGQSLGYGFVNYIDPKDAEKAINTLNGLRLQTKTIKVSYARPSSASIRDANLYVSGLPKTMTQKELEQLFSQYGRIITSRILVDQVTGISRGVGFIRFDKRIEAEEAIKGLNGQKPPGATEPITVKFANNPSQKTNQAILSQLYQSPNRRYPGPLAQQAQRFRLDNLLNMAYGVKRFSPMTIDGMTSLAGINIPGHPGTGWCIFVYNLAPDADESILWQMFGPFGAVTNVKVIRDFNTNKCKGFGFVTMTNYDEAAMAIASLNGYRLGDRVLQVSFKTNKTHKA [ELAVL2]”: the results for the melting temperature with HeLa Kyoto [1] (cell cycle stage: G1/S) and in the data set on HeLa Kyoto [1] (cell cycle stage: mitosis) were 52.6 °C and 52.2 °C, respectively. Further, the results for the thermal stability score in the data set on HeLa Kyoto [2] (setting [5]) and with HeLa Kyoto [2] (cell cycle stage: mitosis) were -0.26 and -1.01, respectively. The “solubility in G1/S (log2)” value in the data set with HeLa Kyoto [3] amounted to 0.208. For the same sequence, the “solubility change mitosis (log2)” value in the data set with HeLa Kyoto [4] is -0.0286.
For “METVISSDSSPAVENEHPQETPESNNSVYTSFMKSHRCYDLIPTSSKLVVFDTSLQVKKAFFALVTNGVRAAPLWDSKKQSFVGMLTITDFINILHRYYKSALVQIYELEEHKIETWREVYLQDSFKPLVCISPNASLFDAVSSLIRNKIHRLPVIDPESGNTLYILTHKRILKFLKLFITEFPKPEFMSKSLEELQIGTYANIAMVRTTTPVYVALGIFVQHRVSALPVVDEKGRVVDIYSKFDVINLAAEKTYNNLDVSVTKALQHRSHYFEGVLKCYLHETLETIINRLVEAEVHRLVVVDENDVVKGIVSLSDILQALVLTGGEKKP [PRKAG1]”, the melting temperature turned out to be 50.7 °C in the data set with HeLa Kyoto [1] (cell cycle stage: G1/S) and 51.2 °C in the data set with HeLa Kyoto [1] (cell cycle stage: mitosis). In addition, the figures for the thermal stability score in the data set with HeLa Kyoto [2] (setting [5]) and in the data set on HeLa Kyoto [2] (cell cycle stage: mitosis) were 0.779 and 1.52, respectively. The “solubility in G1/S (log2)” value in the data set on HeLa Kyoto [3] stood at 0.164. Besides, the “solubility change mitosis (log2)” value in the data set with HeLa Kyoto [4] is -0.127.
For “MEVPPRLSHVPPPLFPSAPATLASRSLSHWRPRPPRQLAPLLPSLAPSSARQGARRAQRHVTAQQPSRLAGGAAIKGGRRRRPDLFRRHFKSSSIQRSAAAAAATRTARQHPPADSSVTMEDMNEYSNIEEFAEGSKINASKNQQDDGKMFIGGLSWDTSKKDLTEYLSRFGEVVDCTIKTDPVTGRSRGFGFVLFKDAASVDKVLELKEHKLDGKLIDPKRAKALKGKEPPKKVFVGGLSPDTSEEQIKEYFGAFGEIENIELPMDTKTNERRGFCFITYTDEEPVKKLLESRYHQIGSGKCEIKVAQPKEVYRQQQQQQKGGRGAAAGGRGGTRGRGRGQGQNWNQGFNNYYDQGYGNYNSAYGGDQNYSGYGGYDYTGYNYGNYGYGQGYADYSGQQSTYGKASRGGGNHQNNYQPY [HNRNPDL]”, the melting temperature came to 54.4 °C in the data set on HeLa Kyoto [1] (cell cycle stage: G1/S) and 53.6 °C in the data set on HeLa Kyoto [1] (cell cycle stage: mitosis). In addition, the thermal stability score with HeLa Kyoto [2] (setting [5]) is 0.0293; in the data set on HeLa Kyoto [2] (cell cycle stage: mitosis) it was -2.51. Also, in the data set on HeLa Kyoto [3], the “solubility in G1/S (log2)” value is -0.122. The “solubility change mitosis (log2)” value in the data set with HeLa Kyoto [4] stood at 0.352.
As for “MEVTGDAGVPESGEIRTLKPCLLRRNYSREQHGVAASCLEDLRSKACDILAIDKSLTPVTLVLAEDGTIVDDDDYFLCLPSNTKFVALASNEKWAYNNSDGGTAWISQESFDVDETDSGAGLKWKNVARQLKEDLSSIILLSEEDLQMLVDAPCSDLAQELRQSCATVQRLQHTLQQVLDQREEVRQSKQLLQLYLQALEKEGSLLSKQEESKAAFGEEVDAVDTGISRETSSDVALASHILTALREKQAPELSLSSQDLELVTKEDPKALAVALNWDIKKTETVQEACERELALRLQQTQSLHSLRSISASKASPPGDLQNPKRARQDPT [DFFA]”, the melting temperature with HeLa Kyoto [1] (cell cycle stage: G1/S) came out at 54.2 °C; in the data set with HeLa Kyoto [1] (cell cycle stage: mitosis), 54.5 °C. In addition, the results for the thermal stability score in the data set on HeLa Kyoto [2] (setting [5]) and in the data set with HeLa Kyoto [2] (cell cycle stage: mitosis) were -1.44 and -0.858, respectively. Further, the “solubility in G1/S (log2)” value with HeLa Kyoto [3] turned out to be 0.392. Besides, in the data set with HeLa Kyoto [4], the “solubility change mitosis (log2)” value worked out at 0.0192.
On to “MEWGSESAAVRRHRVGVERREGAAAAPPPEREARAQEPLVDGCSGGGRTRKRSPGGSGGASRGAGTGLSEVRAALGLALYLIALRTLVQLSLQQLVLRGAAGHRGEFDALQARDYLEHITSIGPRTTGSPENEILTVHYLLEQIKLIEVQSNSLHKISVDVQRPTGSFSIDFLGGFTSYYDNITNVVVKLEPRDGAQHAVLANCHFDSVANSPGASDDAVSCSVMLEVLRVLSTSSEALHHAVIFLFNGAEENVLQASHGFITQHPWASLIRAFINLEAAGVGGKELVFQTGPENPWLVQAYVSAAKHPFASVVAQEVFQSGIIPSDTDFRIYRDFGNIPGIDLAFIENGYIYHTKYDTADRILTDSIQRAGDNILAVLKHLATSDMLAAASKYRHGNMVFFDVLGLFVIAYPSRIGSIINYMVVMGVVLYLGKKFLQPKHKTGNYKKDFLCGLGITLISWFTSLVTVLIIAVFISLIGQSLSWYNHFYVSVCLYGTATVAKIILIHTLAKRFYYMNASAQYLGEVFFDISLFVHCCFLVTLTYQGLCSAFISAVWVAFPLLTKLCVHKDFKQHGAQGKFIAFYLLGMFIPYLYALYLIWAVFEMFTPILGRSGSEIPPDVVLASILAGCTMILSSYFINFIYLAKSTKKTMLTLTLVCAITFLLVCSGTFFPYSSNPANPKPKRVFLQHMTRTFHDLEGNAVKRDSGIWINGFDYTGISHITPHIPEINDSIRAHCEENAPLCGFPWYLPVHFLIRKNWYLPAPEVSPRNPPHFRLISKEQTPWDSIKLTFEATGPSHMSFYVRAHKGSTLSQWSLGNGTPVTSKGGDYFVFYSHGLQASAWQFWIEVQVSEEHPEGMVTVAIAAHYLSGEDKRSPQLDALKEKFPDWTFPSAWVCTYDLFVF [ERMP1]”, for which the melting temperature in the data set with HeLa Kyoto [1] (cell cycle stage: G1/S) was determined as 58.8 °C; in the data set with HeLa Kyoto [1] (cell cycle stage: mitosis), 56.7 °C. For the same sequence, the thermal stability score in the data set with HeLa Kyoto [2] (setting [5]) was -3; with HeLa Kyoto [2] (cell cycle stage: mitosis), -4.39. The “solubility in G1/S (log2)” value in the data set on HeLa Kyoto [3] was -0.0493. Besides, in the data set on HeLa Kyoto [4], the “solubility change mitosis (log2)” value is -0.18.
